Data as given in patent US20070066521, “Short RNA-binding proteins” (published 2007).

T1: S-AC4 (SLCMV AC4) (Sri Lankan cassava mosaic virus)
T1 chain: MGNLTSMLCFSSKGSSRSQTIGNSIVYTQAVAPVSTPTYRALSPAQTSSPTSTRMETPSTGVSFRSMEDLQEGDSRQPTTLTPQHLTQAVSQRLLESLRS

T2: E-AC2 (EACMCV AC2) (East African cassava mosaic Cameroon …)
T2 chain: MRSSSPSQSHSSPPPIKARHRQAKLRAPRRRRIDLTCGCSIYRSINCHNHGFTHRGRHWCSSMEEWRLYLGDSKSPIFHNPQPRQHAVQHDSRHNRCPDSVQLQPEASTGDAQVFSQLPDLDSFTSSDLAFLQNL

T3: E-AC4 (EACMCV AC4) (East African cassava mosaic Cameroon …)
T3 chain: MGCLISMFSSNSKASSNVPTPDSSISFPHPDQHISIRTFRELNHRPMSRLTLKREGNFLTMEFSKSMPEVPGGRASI

B1: pre-miR159 first strand (ssRNA)
RNA: UAAAAAAGGAUUUGGUUAUAUGGAUUGCAUAUCUCAGGAGCUUUAACUUGCCCUGUUAAUGCUUUUACUCUUCUUUGGCUUGAAGGGAGCUCUAC
B2: pre-miR159 duplex (dsRNA)
RNA 1: B1 RNA
RNA 2: GUAGAGCUCCUUAAAGUUCAAACAUGAGUUGAGCAGGGUAAAGAAAAGCUGCUAAGCUAUGGAUCCCAUAAGCCCUAAUCCUUGUAAAG
B3: DmiR-165::DmiR-165* DNA duplex (dsDNA)
DNA 1: TCGGACCAGGCTTCATCCCCC
DNA 2: GGGGGATGAAGCCTGGTCCGA
B4: ta-siRNA siR255::siR255* duplex (dsRNA)
RNA 1: AUGCGAUACAACCUGAAUCUU
RNA 2: GAGAUUCAGGUUGCAUCGCGC

How the values were obtained:
S-AC4 (SLCMV AC4) [1] = target: T1, S-AC4 (SLCMV AC4); experiment: EMSA; conditions: tags: GST fusion (pET41a), Ni-NTA purified; label: 5'-32P
S-AC4 (SLCMV AC4) [2] = target: T1, S-AC4 (SLCMV AC4); experiment: EMSA; as efficient as unmodified; conditions: tags: GST fusion (pET41a), Ni-NTA purified; label: 5'-32P
S-AC4 (SLCMV AC4) [3] = target: T1, S-AC4 (SLCMV AC4); experiment: EMSA; competed by 10-, 50-, 100-fold unlabelled miR165; conditions: tags: GST fusion (pET41a), Ni-NTA purified; label: 5'-32P
S-AC4 (SLCMV AC4) [4] = target: T1, S-AC4 (SLCMV AC4); experiment: EMSA; text cites SEQ ID NO:29 (DNA probe); RNA oligo listed as SEQ 38; conditions: tags: GST fusion (pET41a), Ni-NTA purified; label: 5'-32P
E-AC2 (EACMCV AC2) = target: T2, E-AC2 (EACMCV AC2); experiment: EMSA; conditions: tags: GST fusion (pET41a), Ni-NTA purified; label: 5'-32P
E-AC4 (EACMCV AC4) = target: T3, E-AC4 (EACMCV AC4); experiment: EMSA; data not shown; conditions: tags: pET41a, Ni-NTA purified; label: 5'-32P

Binder | binding result (S-AC4 (SLCMV AC4) [1]) | also measured
AGGCAGUGUGGUUAGCUGGUUG (ssRNA) [miR34] | binds | 
TCGGACCAGGCTTCATCCCCC (ssDNA) [DmiR-165 DNA] | no binding | 
B1 | no binding | 
B2 | no binding | 
UCGGACCAGGCUUCAUCCCCC (ssRNA, 2'-OMe at last (3') nucleotide) [2'-O-methyl miR165] |  | binding result (S-AC4 (SLCMV AC4) [2]): binds
UCGGACCAGGCUUCAUCCCCC (ssRNA) [miR165] |  | binding result (S-AC4 (SLCMV AC4) [3]): binds
AUGCGAUACAACCUGAAUCUU (ssRNA) [ta-siRNA siR255] |  | binding result (S-AC4 (SLCMV AC4) [4]): binds
GAGCUCCUUAAAGUUCAAACA (ssRNA) [miR159*] |  | binding result (E-AC2 (EACMCV AC2)): no binding
B3 | no binding | 
UCCCUGAGACCUCAAGUGUGA (ssRNA) [lin-4] | binds | 
UUUGGAUUGAAGGGAGCUCUA (ssRNA) [miR159] | binds | binding result (E-AC2 (EACMCV AC2)): no binding; binding result (E-AC4 (EACMCV AC4)): no binding
B4 | binds | 
